# B1: NAD-dependent protein deacetylase sirtuin-1 (Homo sapiens), Q96EB6 (parent)
# chain: MADEAALALQPGGSPSAAGADREAASSPAGEPLRKRPRRDGPGLERSPGEPGGAAPEREVPAAARGCPGAAAAALWREAEAEAAAAGGEQEAQATAAAGEGDNGPGLQGPSREPPLADNLYDEDDDDEGEEEEEAAAAAIGYRDNLLFGDEIITNGFHSCESDEEDRASHASSSDWTPRPRIGPYTFVQQHLMIGTDPRTILKDLLPETIPPPELDDMTLWQIVINILSEPPKRKKRKDINTIEDAVKLLQECKKIIVLTGAGVSVSCGIPDFRSRDGIYARLAVDFPDLPDPQAMFDIEYFRKDPRPFFKFAKEIYPGQFQPSLCHKFIALSDKEGKLLRNYTQNIDTLEQVAGIQRIIQCHGSFATASCLICKYKVDCEAVRGDIFNQVVPRCPRCPADEPLAIMKPEIVFFGENLPEQFHRAMKYDKDEVDLLIVIGSSLKVRPVALIPSSIPHEVPQILINREPLPHLHFDVELLGDCDVIINELCHRLGGEYAKLCCNPVKLSEITEKPPRTQKELAYLSELPPTPLHVSEDSSSPERTSPPDSSVIVTLLDQAAKSNDDLDVSESKGCMEEKPQEVQTSRNVESIAEQMENPDLKNVGSSTGEKNERTSVAGTVRKCWPNRVAKEQISRRLDGNQYLFLPPNRYIFHGAEVYSDSEDDVLSSSSCGSNSDSGTCQSPSLEEPMEDESEIEEFYNGLEDEPDVPERAGGAGFGTDGDDQEAINEAISVKQEVTDMNYPSNKS
# Variants of: B1
# Settings: with apex1_human APEX1, P27695
# Sequence of apex1_human APEX1, P27695 (P27695 whole entry): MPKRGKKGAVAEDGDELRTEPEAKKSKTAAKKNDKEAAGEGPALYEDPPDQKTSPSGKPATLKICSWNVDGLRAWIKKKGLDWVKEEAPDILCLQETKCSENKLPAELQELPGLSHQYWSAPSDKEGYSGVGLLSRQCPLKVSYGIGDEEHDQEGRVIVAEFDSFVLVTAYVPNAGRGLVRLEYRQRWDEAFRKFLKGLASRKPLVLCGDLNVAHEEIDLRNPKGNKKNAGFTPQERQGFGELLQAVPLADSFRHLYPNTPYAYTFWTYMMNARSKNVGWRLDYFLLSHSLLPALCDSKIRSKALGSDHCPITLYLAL
row,effect of a mutation on the interaction,Variant
1,disrupting interaction,H363Y
